One block for each substance: values may come before it. Ends that are not written are not given here.
What was measured:
[1] = system: RASless MEFs expressing KRAS G12V; assay: RASless MEF spheroid efficacy, KRAS G12V expressing MEFs; assay type: cell-based, mouse; settings: spheroids, 5 days of exposure, compared to KRAS WT and G12C MEFs
Procedure: (§1) FIG. 9 illustrates mutant-selective cellular efficacy using the RASless MEF panel. Graph showing mean±SD as well as individual assay IC50s from at least three independent experiments assessing the efficacy of the indicated RAS-target pept-ins on a panel of RASless MEFs, expressing either wild-type (WT), mutant G12V or G12C KRAS, or a V600E mutant BRAF in absence of endogenous K-, H-, and NRAS.
(§2) For the single-dose viability screen on spheroid cultures, 1000 cells were seeded per well in black Ultra-Low Attachment (ULA) round-bottom 96-well plates (Corning) in […] full growth medium. […] Technical duplicates were included for all experimental pept-in conditions 5 days after treatment viability was assessed using the CellTiter Glo 3D reagent (Promega) according to the manufacturer's instructions, with the following adaptation: 80 μL of reagent was added per well. Readout was performed on a Clariostar plate reader (BMG). […]
(§3) RAS mutant-selectivity on cellular efficacy was assessed using the isogenic RASless mouse embryonic fibroblast (MEF) panel. […] The panel assessed included the common clinical KRAS variants expressed as transgene (WT, G12V and G12C) and an additional cell line dependent on the expression of BRAF V600E for proliferation.
(§4) Efficacy of RAS-targeting pept-ins on MEFs growing as spheroids was assessed after 5 days of exposure. […]

[2] = system: SW620 xenograft of human KRAS G12V mutant colorectal cancer; assay: In vivo SW620 xenograft model; set-up: species or system Female NCr nu/nu mice
Procedure: FIG. 12 illustrates that RAS-targeting pept-ins reduce tumor growth in a xenograft model of KRAS G12V mutant cancer. […] Pept-ins were dosed 3 times per week by intratumoral injection at either 20 or 200 μg once the tumors reached 100-150 mm^3. Model response was monitored by a positive control group receiving Irinotecan at 100 mg/kg, once per week for 3 weeks. Group sizes were N=6 for the non-treated group, N=5 for the vehicle groups and N=8 for the pept-in and positive control groups. Graphs show box plots of tumor volumes at day 22 after treatment started.
Female NCr nu/nu mice (8 to 12 weeks) were inoculated with 1×10^6 SW620 tumor cells in 50% Matrigel subcutaneously in the hind flank. The cell Injection Volume was 0.1 mL/mouse. When tumors reached an average size of 100-150 mm^3 a pair match was performed, and treatment started. Group sizes were N=6 for the non-treated group, N=5 for the vehicle groups and N=8 for the pept-in and positive control groups. Tumor growth was monitored by caliper measurement twice per week. Model response was monitored by Irinotecan dosed once per week at 100 mg/kg intraperitoneally for 3 weeks.
To assess whether the RAS-targeting pept-ins are able to attenuate growth of KRAS G12V-driven tumors in vivo, a subcutaneous xenograft model of human KRAS G12V colorectal cancer (SW620) was used. Once the tumors reached 100-150 mm^3 in size, pept-ins were administered directly into the tumor mass by intratumoral injection three times per week during two weeks at two different doses (20 μg and 200 μg).

[3] = system: RASless MEFs expressing KRAS WT; assay: RASless MEF spheroid efficacy, KRAS WT expressing MEFs; assay type: cell-based, mouse; settings: spheroids, 5 days of exposure
Procedure: as §1, §2, §3, §4

[4] = system: RASless MEFs expressing KRAS G12C; assay: RASless MEF spheroid efficacy, KRAS G12C expressing MEFs; assay type: cell-based, mouse; settings: spheroids, 5 days of exposure
Procedure: as §1, §2, §3, §4

G12V mutant KRAS = target: T1, G12V mutant KRAS (Homo sapiens, UniProt P01116, G12V); assay: In vitro translation assay with streptavidin pull-down, KRAS G12V; assay type: binding; settings: 10 μM biotinylated pept-in, Western blot
T1 construct: made in house; host or cells: cell-free: PURExpress In Vitro Protein Synthesis Kit (New England Biolabs), linear T7 DNA template
From the text: FIG. 5 illustrates in vitro translation assay showing target selectivity of RAS-targeting molecules (‘pept-ins’) according to certain embodiments of the present invention. In vitro translation assay producing either wild-type or different mutant KRAS in the presence of biotinylated RAS-targeting pept-ins. Streptavidin pull-down was used to capture the biotinylated pept-ins from the translation reaction and pulled-down fraction was probed for KRAS using Western blot. The biotinylated version of pept-in 04-004-N001, i.e. 04-004-N011, which harbours an APR window sequence derived from a wild-type APR, would be predicted to target all RAS proteins independently from their mutation status. […] Using the biotinylated versions of the biologically active pept-ins harbouring an APR window containing the G12V mutant site (04-006-N007, 04-015-N026 and 04-033-N003), however, pull-down was only observed for the G12V mutant KRAS and, in the case of 04-015-N026, for G12C mutant KRAS.
In vitro translation assays were performed using the PURExpress® In Vitro Protein Synthesis Kit (New England Biolabs) according to the manufacturer's instructions. Briefly, linear DNA fragments containing T7 promotor and terminator sequences flanking the KRAS coding sequence were generated using PCR and purified using the MinElute PCR Purification Kit (Qiagen). 250 ng of linear DNA was subsequently used for the in vitro translation reaction, which was performed for 2 hours at 37° C. with shaking (1000 rpm). Indicated biotinylated pept-ins were mixed in the translation reactions from a 5 mM stock solution in 6M Urea to a final concentration of 10 μM. Upon completion of the translation reaction, biotinylated pept-ins were captured from the reaction mix using Streptavidin coated beads (Pierce) during 90 min at room temperature. Beads were next washed with TBS containing 0.1% Tween 20 and bound proteins were finally boiled off in 1×SDS loading dye (Bio-Rad) in TBS buffer. Proteins were resolved using Any kD 15-well Mini-PROTEAN gels (Bio-Rad) during SDS-PAGE and probed for KRAS after Western blotting using a mouse monoclonal KRAS-specific antibody (SC-30, Santa Cruz Biotechnology), which was detected with an HRP-coupled anti-mouse secondary antibody using chemiluminescence on a Bio-Rad Chemidoc MP imaging instrument.
To mimic this in vitro, we devised an in vitro translation setup producing either wild-type or mutant (G12V, G12C, G12D or G13D) KRAS in the presence of biotinylated RAS-targeting pept-ins. This allowed us to perform a streptavidin pull-down to capture the biotinylated pept-ins from the translation reaction and perform SDS-PAGE and Western blotting to probe the pulled-down fraction for the presence of KRAS. […]

KRAS wild-type = target: T2, KRAS wild-type (Homo sapiens, UniProt P01116); assay: In vitro translation assay with streptavidin pull-down, KRAS wild-type; assay type: binding; settings: 10 μM biotinylated pept-in, Western blot
T2 construct: made in house; host or cells: cell-free: PURExpress In Vitro Protein Synthesis Kit (New England Biolabs), linear T7 DNA template
From the text: (§5) FIG. 5 illustrates in vitro translation assay showing target selectivity of RAS-targeting molecules (‘pept-ins’) according to certain embodiments of the present invention. In vitro translation assay producing either wild-type or different mutant KRAS in the presence of biotinylated RAS-targeting pept-ins. Streptavidin pull-down was used to capture the biotinylated pept-ins from the translation reaction and pulled-down fraction was probed for KRAS using Western blot. The biotinylated version of pept-in 04-004-N001, i.e. 04-004-N011, which harbours an APR window sequence derived from a wild-type APR, would be predicted to target all RAS proteins independently from their mutation status. […]
(§6) In vitro translation assays were performed using the PURExpress® In Vitro Protein Synthesis Kit (New England Biolabs) according to the manufacturer's instructions. […] Proteins were resolved using Any kD 15-well Mini-PROTEAN gels (Bio-Rad) during SDS-PAGE and probed for KRAS after Western blotting using a mouse monoclonal KRAS-specific antibody (SC-30, Santa Cruz Biotechnology), which was detected with an HRP-coupled anti-mouse secondary antibody using chemiluminescence on a Bio-Rad Chemidoc MP imaging instrument. […]

G12C mutant KRAS = target: T3, G12C mutant KRAS (Homo sapiens, UniProt P01116, G12C); assay: In vitro translation assay with streptavidin pull-down, KRAS G12C; assay type: binding; settings: 10 μM biotinylated pept-in, Western blot
T3 construct: made in house; host or cells: cell-free: PURExpress In Vitro Protein Synthesis Kit (New England Biolabs), linear T7 DNA template
From the text: as §5, §6

KRAS G13D mutant = target: T4, KRAS G13D mutant (Homo sapiens, UniProt P01116, G13D); assay: In vitro translation assay with streptavidin pull-down, KRAS G13D; assay type: binding; settings: 10 μM biotinylated pept-in, Western blot
T4 construct: made in house; host or cells: cell-free: PURExpress In Vitro Protein Synthesis Kit (New England Biolabs), linear T7 DNA template
From the text: as §5, §6

wild-type KRAS = target: T5, wild-type KRAS (Homo sapiens, UniProt P01116); assay: Cellular co-immunoprecipitation in KRAS wild-type expressing RASless MEFs; assay type: cell-based; settings: 25 μM biotinylated pept-in, 16 hours
T5 construct: host or cells: RASless mouse embryonic fibroblasts expressing a KRAS transgene
Procedure: (§7) FIG. 10 illustrates cellular co-immunoprecipitation assays showing target engagement by RAS-targeting molecules (‘pept-ins’) according to certain embodiments of the present invention. Cellular target engagement of biotinylated pept-ins was assessed using co-immunoprecipitation assay. KRAS wild-type or mutant G12V expressing RASless MEFs. […] The biotinylated versions of the G12V-selective pept-ins, however, show preferential binding to the G12V mutant KRAS protein.
(§8) Cellular co-immunoprecipitation assays were performed using either KRAS wild-type or mutant G12V expressing RASless MEFs (see elsewhere) or human NCI-H441 lung adenocarcinoma tumor cells and N-terminally biotinylated pept-ins. Cells were seeded at a density of 300,000 cells in a clear 6-well plate (Cellstar, Greiner). […] Next, cells were lysed with NP-40 lysis buffer (150 mM NaCl, 50 mM Tris HCl pH8, 1% IGEPAL (NP40), 1× Halt phosphatase/protease inhibitors (Thermo), 1 U/μl Universal Nuclease (Pierce)) and biotinylated pept-ins were captured with streptavidin-coated magnetic beads (Pierce) during 1 hours at room temperature. Beads were washed with NP40 lysis buffer at least 3 times, after which bound proteins were boiled off in 1×SDS loading dye (Bio-Rad) in NP40 lysis buffer. […]

mutant G12V KRAS = target: T6, mutant G12V KRAS (Homo sapiens, UniProt P01116, G12V); assay: Cellular co-immunoprecipitation in KRAS G12V expressing RASless MEFs; assay type: cell-based; settings: 25 μM biotinylated pept-in, 16 hours
T6 construct: host or cells: RASless mouse embryonic fibroblasts expressing a KRAS G12V transgene
Procedure: as §7, §8

KRAS G12D mutant = target: T7, KRAS G12D mutant (Homo sapiens, UniProt P01116, G12D); assay: In vitro translation assay with streptavidin pull-down, KRAS G12D; assay type: binding; settings: 10 μM biotinylated pept-in, Western blot
T7 construct: made in house; host or cells: cell-free: PURExpress In Vitro Protein Synthesis Kit (New England Biolabs), linear T7 DNA template
From the text: as §5, §6

KRAS G12V = KRAS G12V (human, UniProt P01116-2 1-188, limits assumed); assay: cell-based or functional assay
[5] = system: HeLa cells overexpressing mCherry-tagged KRAS G12V; assay: Cellular fluorescent imaging in HeLa cells overexpressing mCherry-tagged KRAS G12V; assay type: cell-based, human; settings: 75 min after treatment with the FITC-labeled pept-in
Procedure: FIG. 7 illustrates cellular co-localization between mCherry-labeled KRAS and FITC-labeled RAS-targeting molecules (‘pept-ins’) according to certain embodiments of the present invention.
Fluorescent cellular imaging was performed using HeLa cells that were transduced with lentiviral particles carrying a construct expressing KRAS G12V labeled N-terminally with mCherry. Cells were seeded in a black μClear® Cellstar® F-bottom 96-well plates (Greiner) in […] full growth medium. […] Next, cells were fixed, washed and counterstained with the nuclear dye NucBlue™ (containing Hoechst 33342). Images were captured on a Leica confocal microscope.
To complement the co-immunoprecipitation approach, we also used a cellular imaging approach to show target engagement. To this end, we generated a HeLa cell line overexpressing mCherry-tagged KRAS G12V and FITC-labelled versions of the RAS-targeting pept-ins.

Substance: Ac-KLSVFAIKGSKLSVFAIK-NH2 [04-004-N001]
- efficacy on MEFs expressing KRAS G12V [1]: notable increased efficacy
- average tumor volume at day 22 after treatment started ([2]; 20 μg intratumoral injection three times per week): only significant for the 200 μg dosing group
- average tumor volume at day 22 after treatment started ([2]; 200 μg intratumoral injection three times per week): only significant for the 200 μg dosing group
- efficacy on MEFs expressing KRAS WT [3]: responded similarly as the BRAF V600E expressing RASless MEFs
- efficacy on MEFs expressing KRAS G12C [4]: responded similarly as the BRAF V600E expressing RASless MEFs

Substance: 04-004-N011: biotinylated version of pept-in 04-004-N001 (KLSVFAIKGSKLSVFAIK; also: biotinylated, site not given here)
- streptavidin pull-down of KRAS wild-type (KRAS wild-type): efficient pull-down
- streptavidin pull-down of KRAS G12C (G12C mutant KRAS): efficient pull-down
- binding (pull-down) to KRAS G13D (KRAS G13D mutant): less efficient
- co-precipitation of wild-type KRAS (wild-type KRAS): precipitate both wild-type and mutant G12V KRAS well
- co-precipitation of mutant G12V KRAS (mutant G12V KRAS): precipitate both wild-type and mutant G12V KRAS well
- streptavidin pull-down of KRAS G12V (G12V mutant KRAS): efficient pull-down
- binding (pull-down) to KRAS G12D (KRAS G12D mutant): less efficient

Substance: SAH-SOS-1A (peptide)
- IC50 on viability of adherent NCI-H441 cells after 4 days exposure (KRAS G12V): 15 µM

Substance: 04-033-N003: biotinylated version of a biologically active pept-in harbouring an APR window containing the G12V mutant site (KVVVGAVGVGKGSKVVVGAVGVGK; also: biotinylated, site not given here)
- streptavidin pull-down of KRAS G12V (G12V mutant KRAS): notable pull-down

Substance: 04-015-N032: FITC-labelled version of pept-in 04-015-N001 (KVVVGAVGKGSKVVVGAVGK; not fully specified (C-terminus); also: FITC-labelled, site not given here)
- association with mCherry-labelled KRAS (inclusion-like perinuclear structures) [5]: associates with mCherry-labelled KRAS

Now from value to substance:

- streptavidin pull-down of KRAS G12V (G12V mutant KRAS): notable pull-down
Substance: 04-006-N007: biotinylated version of a biologically active pept-in harbouring an APR window containing the G12V mutant site (KVVVGAVKGSKVVVGAVK; also: biotinylated, site not given here)

- streptavidin pull-down of KRAS G12C (G12C mutant KRAS): notable pull-down
- streptavidin pull-down of KRAS G12V (G12V mutant KRAS): notable pull-down
Substance: 04-015-N026: biotinylated version of a biologically active pept-in harbouring an APR window containing the G12V mutant site (KVVVGAVGKGSKVVVGAVGK; also: biotinylated, site not given here)

— patent US20230090247A1, “MOLECULES TARGETING RAS PROTEIN” (AELIN THERAPEUTICS, priority 2020, published 2023)
